B1: 35B4 (antibody, V domains shown)
VH: EAKLVESGGDFMQPGGSLKLSCAASGFTLSSYALSWVRQTPEKRLEWVAYISNLGGSTFYPDTVKGRFTISRDNARNTLFLQMSSLQSEDTAIYYCATHLYNYDAFASWGQGTLVTVSA
VL: QIVLSQSPAILSASPGEKVTMTCRASSSVNYIHWYQQKPGSSPKAWIYATSNLASGVPTRFSGSGSGTSYSLTIDRVEAEDAATYYCQQWNSNPLTFGAGTKLELK
B2: 33G12 (antibody, V domains shown)
VH: EVKLVESGGGLVQPGGSLKLSCAASGFTFSRYAMSWVRQTPEKRLEWVAYISIGGTTYYPDTIKGRFTISRDNAKNTLYLQMSSLKSEDTAMYYCTRHYYGHDVMDYWGQGTSVTVSS
VL: QIVLSQSPTILSASPGEKVTMTCRATSSVSYMHWFQQKPGSSPKPWIYATSNLASGVPARFSGSGSGTSYSLTISRVEAEDAATYYCQQWSRNPLTFGAGTKLELK
B3: hu22E12.H1L2 (antibody, V domains shown)
VH: QVQLVQSGAEVKKPGASVKVSCKASGYTFTNWVHWVRQAPGQGLEWMGEINPTNARSNYNEKFKKRVTMTRDTSTSTVYMELSSLRSEDTAVYYCARIYYGNSFAHWGQGTLVTVSS
VL: DIVMTQSPDSLAVSLGERATINCKSSQSLLNAGNQKNYLTWYQQKPGQPPKLLIYWSSTRESGVPDRFSGSGSGTDFTLTISSLQAEDVAVYHCQNNYYYPLTFGGGTKLEIK
B4: ch97A9 (antibody, V domains shown)
VH: QVQLQQSGPELVKPGASMKLSCKASGYSFTRNDINWVKQRPGQGLEWIGLSYPRDGTTQYNGKFKGKATLTVDTSSSTAYMELRSLTSEDSAVYFCARGYYGNSFAYWGQGTLVTVSA
VL: DIVMTQSPSSLTVTAGEKVTMSCKSSQSLLNSGNQKNYLTWYQQKPGQPPKLLIYWASTRESGVPDRFTGSGSGTYFTLTISSVQAEDLAVYFCQNDYYFPYTFGGGTKLEIK
B5: 22E12 (antibody, V domains shown)
VH: QVQLQQPGTELVKTGTSVKLSCKASGYTFTNWVHWVIQRPGQGLEWIGEINPTNGRSNYNEKFKKKATLTLDRSSTTAYMQLSSLTSEDSAVYFCAGIYYGNSFAHWGQGTLVTVSA
VL: DIVMTQSPSSLTVTAGEKVTLSCKSSQSLLNSGNQKNYLTWYQQKPGQPPKLLIYWSSTRESGVPDRFTGSGSGTDFTLTISSVQAEDLAVYHCQNNYYYPLTFGAGTKLELK
B6: 97A9 (antibody, V domains shown)
VH: QVQLQQSGPELVKPGASMKLSCKASGYSFTRNDINWVKQRPGQGLEWIGLSYPRDGTTQYNGKFKGKATLTVDTSSSTAYMELRSLTSEDSAVYFCARGYYGNSFAYWGQGTLVTVSA
VL: DIVMTQSPSSLTVTAGEKVTMSCKSSQSLLNSGNQKNYLTWYQQKPGQPPKLLIYWASTRESGVPDRFTGSGSGTYFTLTISSVQAEDLAVYFCQNDYYFPYTFGGGTKLEIK
B7: ch99H8 (antibody, V domains shown)
VH: QVQLQQSGPELVKPGASVKLSCKASGYSFTNFDINWVKQRPGQGLQWIGRLYPRDGTTTYNEKFKGKASLTVDTSSTTSYMDLHSLTSEDSAVYFCVRGNYGNSFAYWGQGTLVTVSA
VL: DIVMTQSPSSLTVTAREKVIMNCKSSQSLFNSGNQKNYLTWYQQKPGQSPKLLIYWASTRQSGVPDRFTGSGSGTDFTLTISTVQAEDLAVYFCQNGFSFPYTFGGGTKLEMN
B8: 99H8 (antibody, V domains shown)
VH: QVQLQQSGPELVKPGASVKLSCKASGYSFTNFDINWVKQRPGQGLQWIGRLYPRDGTTTYNEKFKGKASLTVDTSSTTSYMDLHSLTSEDSAVYFCVRGNYGNSFAYWGQGTLVTVSA
VL: DIVMTQSPSSLTVTAREKVIMNCKSSQSLFNSGNQKNYLTWYQQKPGQSPKLLIYWASTRQSGVPDRFTGSGSGTDFTLTISTVQAEDLAVYFCQNGFSFPYTFGGGTKLEMN
B9: hu35B4.H1L2 (antibody, V domains shown)
VH: EVQLLESGGGLVQPGGSLRLSCAASGFTLSSYALSWVRQAPGKGLEWVSYISNLGGSTFYPDTVKGRFTISRDNSKNTLYLQMNSLRAEDTAVYYCAKHLYNYDAFASWGQGTLVTVSS
VL: DIQLTQSPSFLSASVGDRVTITCRASSSVNYIHWYQQKPGKAPKALIYATSNLASGVPSRFSGSGSGTEYTLTISSLQPEDFATYYCQQWNSNPLTFGQGTKLEIK

What was measured:
[1] = target: biotin labeled hCLDN18.2 (human); experiment: competitive ELISA: excess antibody plus biotin labeled hCLDN18.2 on coated IMAB362; competitor IMAB362
[2] = target: mouse CLDN18.2 (mCLDN18.2), expressed on HEK293 cells (mouse) (UniProt P56857); experiment: FACS, HEK293/mCLDN18.2 cells
[3] = target: human CLDN18.2 as used in the Octet assay (human); experiment: Octet (BLI); format not described
[4] = target: recombinant 6xHis tagged human CLDN18.2 (human); experiment: SPR (Biacore T200), His tagged CLDN18.2 amine-coupled on CM5, antibody as analyte, 1:1 fit
[5] = target: recombinant 6xHis tagged human CLDN18.2 (human); experiment: SPR (Biacore); same values as Table 30, where the antibody is hu22E12.H1L2
[6] = target: recombinant 6xHis tagged human CLDN18.2 (human); experiment: SPR (Biacore); same values as Table 30, where the antibody is ch97A9
[7] = target: recombinant 6xHis tagged human CLDN18.2 (human); experiment: SPR (Biacore); same values as Table 30, where the antibody is ch99H8
[8] = target: recombinant 6xHis tagged human CLDN18.2 (human); experiment: SPR (Biacore); same values as Table 30, where the antibody is hu35B4.H1L2

Row | Binder | Compete with IMAB362 (%) [1] | EC50 [2] | Kd [3] | Kd [4] | koff [4] | kon [4] | other results
1 | B1 | 81% | 1.9 nM | 3.3 nM |  |  |  | 
2 | B2 | 87% | 1.7 nM | 6.2 nM |  |  |  | 
3 | B3 |  |  |  | 0.26 nM | 0.000202 s⁻¹ | 778000 M⁻¹ s⁻¹ | Kd [5]: 0.26 nM
4 | B4 |  |  |  | 1.15 nM | 0.000489 s⁻¹ | 425000 M⁻¹ s⁻¹ | Kd [6]: 1.15 nM
5 | B5 | 49% | 0.9 nM | < 0.001 nM |  |  |  | 
6 | B6 | 92% | 1.4 nM | 2.2 nM |  |  |  | 
7 | B7 |  |  |  | 1.75 nM | 0.000355 s⁻¹ | 203000 M⁻¹ s⁻¹ | Kd [7]: 1.75 nM
8 | B8 |  | 3.5 nM | 2 nM |  |  |  | 
9 | B9 |  |  |  | 1.57 nM | 0.00035 s⁻¹ | 222000 M⁻¹ s⁻¹ | Kd [8]: 1.57 nM

— patent publication US20240270839A1
